From US20260167699A1 (Chugai, published 2026)

B1: GpH7-A5/GpH7-B3 variant H268_01G/GpL16-k0 (antibody, human IgG1, kappa)
heavy 1: not shown
heavy 2: not shown
light: DIVMTQSPLSLPVTPGEPASISCQASESLVHSNRNTYLHWYLQKPGQSPQLLIYKVSNRFSGVPDRFSGSGSGTDFTLKISRVEAEDVGVYYCSQNTHVPPTFGQGTKVEIERTVAAPSVFIFPPSDEQLKSGTASVVCLLNNFYPREAKVQWKVDNALQSGNSQESVTEQDSKDSTYSLSSTLTLSKADYEKHKVYACEVTHQGLSSPVTKSFNRGEC
notes: copies: 1 + 1 + 2
B2: GpH7-A5/GpH7-B3 variant I336_08L/GpL16-k0 (antibody, human IgG1, kappa)
heavy 1: not shown
heavy 2: not shown
light: B1 light
notes: copies: 1 + 1 + 2
B3: GpH7-A5/GpH7-B3 variant H268_06M/GpL16-k0 (antibody, human IgG1, kappa)
heavy 1: not shown
heavy 2: not shown
light: B1 light
notes: copies: 1 + 1 + 2
B4: GpH7-A5/GpH7-B3 variant H268_08L/GpL16-k0 (antibody, human IgG1, kappa)
heavy 1: not shown
heavy 2: not shown
light: B1 light
notes: copies: 1 + 1 + 2
B5: GpH7-A5/GpH7-B3 variant I332_13S/GpL16-k0 (antibody, human IgG1, kappa)
heavy 1: not shown
heavy 2: not shown
light: B1 light
notes: copies: 1 + 1 + 2
B6: GpH7-A5/GpH7-B3 variant I336_04F/GpL16-k0 (antibody, human IgG1, kappa)
heavy 1: not shown
heavy 2: not shown
light: B1 light
notes: copies: 1 + 1 + 2
B7: GpH7-A5/GpH7-B3 variant I336_19Q/GpL16-k0 (antibody, human IgG1, kappa)
heavy 1: not shown
heavy 2: not shown
light: B1 light
notes: copies: 1 + 1 + 2
B8: GpH7-A5/GpH7-B3 variant H268_13S/GpL16-k0 (antibody, human IgG1, kappa)
heavy 1: not shown
heavy 2: not shown
light: B1 light
notes: copies: 1 + 1 + 2
B9: GpH7-A5/GpH7-B3 variant I336_16H/GpL16-k0 (antibody, human IgG1, kappa)
heavy 1: not shown
heavy 2: not shown
light: B1 light
notes: copies: 1 + 1 + 2
B10: GpH7-A5/GpH7-B3 variant I332_19Q/GpL16-k0 (antibody, human IgG1, kappa)
heavy 1: not shown
heavy 2: not shown
light: B1 light
notes: copies: 1 + 1 + 2
B11: GpH7-A5/GpH7-B3 variant I332_01G/GpL16-k0 (antibody, human IgG1, kappa)
heavy 1: not shown
heavy 2: not shown
light: B1 light
notes: copies: 1 + 1 + 2
B12: GpH7-A5/GpH7-B3 variant I336_10E/GpL16-k0 (antibody, human IgG1, kappa)
heavy 1: not shown
heavy 2: not shown
light: B1 light
notes: copies: 1 + 1 + 2
B13: GpH7-A5/GpH7-B3 variant H268_19Q/GpL16-k0 (antibody, human IgG1, kappa)
heavy 1: not shown
heavy 2: not shown
light: B1 light
notes: copies: 1 + 1 + 2
B14: GpH7-A5/GpH7-B3 variant H268_15Y/GpL16-k0 (antibody, human IgG1, kappa)
heavy 1: not shown
heavy 2: not shown
light: B1 light
notes: copies: 1 + 1 + 2
B15: GpH7-A5/GpH7-B3 variant I336_09D/GpL16-k0 (antibody, human IgG1, kappa)
heavy 1: not shown
heavy 2: not shown
light: B1 light
notes: copies: 1 + 1 + 2
B16: GpH7-A5/GpH7-B3 variant I332_09D/GpL16-k0 (antibody, human IgG1, kappa)
heavy 1: not shown
heavy 2: not shown
light: B1 light
notes: copies: 1 + 1 + 2
B17: GpH7-A5/GpH7-B3 variant H268_20W/GpL16-k0 (antibody, human IgG1, kappa)
heavy 1: not shown
heavy 2: not shown
light: B1 light
notes: copies: 1 + 1 + 2
B18: GpH7-A5/GpH7-B3 variant K326_04F/GpL16-k0 (antibody, human IgG1, kappa)
heavy 1: not shown
heavy 2: not shown
light: B1 light
notes: copies: 1 + 1 + 2
B19: GpH7-A5/GpH7-B3 variant I332_20W/GpL16-k0 (antibody, human IgG1, kappa)
heavy 1: not shown
heavy 2: not shown
light: B1 light
notes: copies: 1 + 1 + 2
B20: GpH7-A5/GpH7-B3 variant H268_14T/GpL16-k0 (antibody, human IgG1, kappa)
heavy 1: not shown
heavy 2: not shown
light: B1 light
notes: copies: 1 + 1 + 2
B21: GpH7-A5/GpH7-B3 variant I336_11K/GpL16-k0 (antibody, human IgG1, kappa)
heavy 1: not shown
heavy 2: not shown
light: B1 light
notes: copies: 1 + 1 + 2
B22: GpH7-A5/GpH7-B3 variant K326_01G/GpL16-k0 (antibody, human IgG1, kappa)
heavy 1: not shown
heavy 2: not shown
light: B1 light
notes: copies: 1 + 1 + 2
B23: GpH7-A5/GpH7-B3 variant I332_14T/GpL16-k0 (antibody, human IgG1, kappa)
heavy 1: not shown
heavy 2: not shown
light: B1 light
notes: copies: 1 + 1 + 2
B24: GpH7-A5/GpH7-B3 variant I336_15Y/GpL16-k0 (antibody, human IgG1, kappa)
heavy 1: not shown
heavy 2: not shown
light: B1 light
notes: copies: 1 + 1 + 2
B25: GpH7-A5/GpH7-B3 variant I332_04F/GpL16-k0 (antibody, human IgG1, kappa)
heavy 1: not shown
heavy 2: not shown
light: B1 light
notes: copies: 1 + 1 + 2
B26: GpH7-A5/GpH7-B3 variant K326_03V/GpL16-k0 (antibody, human IgG1, kappa)
heavy 1: not shown
heavy 2: not shown
light: B1 light
notes: copies: 1 + 1 + 2
B27: GpH7-A5/GpH7-B3 variant K326_02A/GpL16-k0 (antibody, human IgG1, kappa)
heavy 1: not shown
heavy 2: not shown
light: B1 light
notes: copies: 1 + 1 + 2
B28: GpH7-A5/GpH7-B3 variant I332_16H/GpL16-k0 (antibody, human IgG1, kappa)
heavy 1: not shown
heavy 2: not shown
light: B1 light
notes: copies: 1 + 1 + 2

Target: T1, FcγRIIIa (human, UniProt P08637 17-208)
T1 construct: extracellular domain; also called 3a; FcγRIIIa extracellular domain
Assay: SPR (Biacore);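 note: antibody variants captured on an SPR sensor chip, with FcγRIIIa passed over as analyte in HBS-EP+ buffer at 25 °C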

T1 sequence (P08637 other isoform, or with tags, fused parts or gaps): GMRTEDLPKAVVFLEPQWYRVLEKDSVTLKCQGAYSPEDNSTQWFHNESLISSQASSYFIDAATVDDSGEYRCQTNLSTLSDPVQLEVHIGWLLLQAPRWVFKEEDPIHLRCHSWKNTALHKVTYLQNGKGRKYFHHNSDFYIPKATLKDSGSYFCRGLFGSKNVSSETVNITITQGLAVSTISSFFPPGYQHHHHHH

Binder	He/Con 3a
B1	95.7 % of GpH7-A5/GpH7-B3/GpL16-k0
B2	102 % of GpH7-A5/GpH7-B3/GpL16-k0
B3	79.5 % of GpH7-A5/GpH7-B3/GpL16-k0
B4	75.9 % of GpH7-A5/GpH7-B3/GpL16-k0
B5	95.6 % of GpH7-A5/GpH7-B3/GpL16-k0
B6	93.2 % of GpH7-A5/GpH7-B3/GpL16-k0
B7	88.4 % of GpH7-A5/GpH7-B3/GpL16-k0
B8	121 % of GpH7-A5/GpH7-B3/GpL16-k0
B9	92.8 % of GpH7-A5/GpH7-B3/GpL16-k0
B10	101 % of GpH7-A5/GpH7-B3/GpL16-k0
B11	101 % of GpH7-A5/GpH7-B3/GpL16-k0
B12	114 % of GpH7-A5/GpH7-B3/GpL16-k0
B13	113 % of GpH7-A5/GpH7-B3/GpL16-k0
B14	96.5 % of GpH7-A5/GpH7-B3/GpL16-k0
B15	102 % of GpH7-A5/GpH7-B3/GpL16-k0
B16	189 % of GpH7-A5/GpH7-B3/GpL16-k0
B17	82 % of GpH7-A5/GpH7-B3/GpL16-k0
B18	114 % of GpH7-A5/GpH7-B3/GpL16-k0
B19	116 % of GpH7-A5/GpH7-B3/GpL16-k0
B20	90.3 % of GpH7-A5/GpH7-B3/GpL16-k0
B21	94.4 % of GpH7-A5/GpH7-B3/GpL16-k0
B22	114 % of GpH7-A5/GpH7-B3/GpL16-k0
B23	110 % of GpH7-A5/GpH7-B3/GpL16-k0
B24	83.4 % of GpH7-A5/GpH7-B3/GpL16-k0
B25	89.3 % of GpH7-A5/GpH7-B3/GpL16-k0
B26	135 % of GpH7-A5/GpH7-B3/GpL16-k0
B27	130 % of GpH7-A5/GpH7-B3/GpL16-k0
B28	89 % of GpH7-A5/GpH7-B3/GpL16-k0
